We go through four molecules from patent US20230295310A1 (ABCELLERA BIOLOGICS, published 2023).

This assay deals with EGFR on HeLa cells (UniProt P00533 25-1210, limits assumed). The assay can be described thus: cell-based or functional assay.

B1: GOMP001_bsAb_024 (bispecific antibody, human IgG1, kappa, L234A L235A)
heavy 1: QGQLVESGGGVVQPGRSLRLSCEASGFTFRSYGMHWVRKPPGKGLEWVAIIWYDGGKKYYGDEVKGRFTISRDNPKNTLYLQMNSLRPEDTAVYYCMAYDYSNGFDIWGQGTMVTVSSASTKGPSVFPLAPSSKSTSGGTAALGCLVADYFPEPVTVSWNSGALTSGVHTFPAVLQSSGLYSLSSVVTVPSSSLGTQTYICNVNHKPSNTKVDEKVEPKSCDKTHTCPPCPAPEAAGGPSVFLFPPKPKDTLMISRTPEVTCVVVDVSHEDPEVKFNWYVDGVEVHNAKTKPREEQYNSTYRVVSVLTVLHQDWLNGKEYKCKVSNKALPAPIEKTISKAKGQPREPQVYTLPPSREEMTDNQVSLTCLVKGFYPSDIAVEWESNGQPENNYKTTPPVLMSDGSFFLASKLTVDKSRWQQGNVFSCSVMHEALHNHYTQKSLSLSPG
light 1: RIVMTQTPLSSPVTLGQPASISCRSSQSFVHSDGSTYLSWLQDRPGQPPRLLIYKISNRFSGVPDRFSGRGAGTDFTLKISRVEAEDVGIYYCMQNTQFPYTFGQGTKLEIKRTVAAPSVFIFPPSDKQLKSGTARVVCLLNNFYPREAKVQWKVDNALQSGNSQESVTEQDSKDSTYSLSSTLTLSKADYEKHKVYACEVTHQGLSSPVTKSFNRGEC
heavy 2: QVQLVQSGAEVKKPGASVKVSCKASGYTFTSHWMHWVRYAPGQGLEWIGEFNPSNGRTNYNEKFKSKATMTVDTSTNTAYMELSSLRSEDTAVYYCASRDYDYDGRYFDYWGRGTLVTVSSASTKGPSVFPLAPSSKSTSGGTAALGCLVKDYFPEPVTVSWNSGALTSGVHTFPAVLQSSGLYSLSSVVTVPSSSLGTQTYICNVNHKPSNTKVDKKVEPKSCDKTHTCPPCPAPEAAGGPSVFLFPPKPKDTLMISRTPEVTCVVVDVSHEDPEVKFNWYVDGVEVHNAKTKPREEQYNSTYRVVSVLTVLHQDWLNGKEYKCKVSNKALPAPIEKTISKAKGQPRRPRVYTLPPSREEMTKNQVSLVCLVKGFYPSDIAVEWESNGQPENNYKTTPPVLDSDGSFFLYSVLTVDKSRWQQGNVFSCSVMHEALHNHYTQKSLSLSPG
light 2: DIQMTQSPSSLSASVGDRVTITCSASSSVTYMYWYQRKPGDAPKLLIYDTSNLASGVPSRFSGSGSGTDYTFTISSLQPEDIATYYCQQWSSHIFTFGQGTKVEIKRTVAAPSVFIFPPSDEQLKSGTASVVCLLNNFYPREAKVQWKVDNALQSGNSQESVTEQDSKDSTYSLSSTLTLSKADYEKHKVYACEVTHQGLSSPVTKSFNRGEC
As for B1, the Max killing % was 72.5% and the “X… HeLa EC50” value stood at 0.895 nM.

B2: GOMP001_bsAb_030 (bispecific antibody, human IgG1, kappa, L234A L235A)
heavy 1: QVQLVQSGAEVKKPGASVKVSCKASGYTVTGYYMHWVRKAPGQGLEWMGWINPNSGGTNFAQEFQGRVTMTRDTSISTFYMDLNRLRSDDTAVYYCARGGAPVSYWFFDLWGRGTLVTVSSASTKGPSVFPLAPSSKSTSGGTAALGCLVADYFPEPVTVSWNSGALTSGVHTFPAVLQSSGLYSLSSVVTVPSSSLGTQTYICNVNHKPSNTKVDEKVEPKSCDKTHTCPPCPAPEAAGGPSVFLFPPKPKDTLMISRTPEVTCVVVDVSHEDPEVKFNWYVDGVEVHNAKTKPREEQYNSTYRVVSVLTVLHQDWLNGKEYKCKVSNKALPAPIEKTISKAKGQPREPQVYTLPPSREEMTDNQVSLTCLVKGFYPSDIAVEWESNGQPENNYKTTPPVLMSDGSFFLASKLTVDKSRWQQGNVFSCSVMHEALHNHYTQKSLSLSPG
light 1: RIQMTQSPSSLSASVGDRVTITCRASQSISRYLNWYQDKPGKAPKVLIYNTSSLKSGVPSRFSGSGSGTDFTLTISSLQPEDFGTFYCQQSHSTPFTFGPGTKVDIKRTVAAPSVFIFPPSDKQLKSGTARVVCLLNNFYPREAKVQWKVDNALQSGNSQESVTEQDSKDSTYSLSSTLTLSKADYEKHKVYACEVTHQGLSSPVTKSFNRGEC
heavy 2: QVQLVQSGAEVKKPGASVKVSCKASGYTFTSHWMHWVRYAPGQGLEWIGEFNPSNGRTNYNEKFKSKATMTVDTSTNTAYMELSSLRSEDTAVYYCASRDYDYDGRYFDYWGRGTLVTVSSASTKGPSVFPLAPSSKSTSGGTAALGCLVKDYFPEPVTVSWNSGALTSGVHTFPAVLQSSGLYSLSSVVTVPSSSLGTQTYICNVNHKPSNTKVDKKVEPKSCDKTHTCPPCPAPEAAGGPSVFLFPPKPKDTLMISRTPEVTCVVVDVSHEDPEVKFNWYVDGVEVHNAKTKPREEQYNSTYRVVSVLTVLHQDWLNGKEYKCKVSNKALPAPIEKTISKAKGQPRRPRVYTLPPSREEMTKNQVSLVCLVKGFYPSDIAVEWESNGQPENNYKTTPPVLDSDGSFFLYSVLTVDKSRWQQGNVFSCSVMHEALHNHYTQKSLSLSPG
light 2: DIQMTQSPSSLSASVGDRVTITCSASSSVTYMYWYQRKPGDAPKLLIYDTSNLASGVPSRFSGSGSGTDYTFTISSLQPEDIATYYCQQWSSHIFTFGQGTKVEIKRTVAAPSVFIFPPSDEQLKSGTASVVCLLNNFYPREAKVQWKVDNALQSGNSQESVTEQDSKDSTYSLSSTLTLSKADYEKHKVYACEVTHQGLSSPVTKSFNRGEC
Take B2: the Max killing % came out at 92.6% and the “X… HeLa EC50” value came out at 0.0454 nM.

B3: GOMP001_bsAb_029 (bispecific antibody, human IgG1, kappa, L234A L235A)
heavy 1: QVQLVQSGAEVKKPGASVKVSCKASGYTFTSHWMHWVRKAPGQGLEWIGEFNPSNGRTNYNEEFKSKATMTVDTSTNTAYMELSSLRSEDTAVYYCASRDYDYDGRYFDYWGQGTLVTVSSASTKGPSVFPLAPSSKSTSGGTAALGCLVADYFPEPVTVSWNSGALTSGVHTFPAVLQSSGLYSLSSVVTVPSSSLGTQTYICNVNHKPSNTKVDEKVEPKSCDKTHTCPPCPAPEAAGGPSVFLFPPKPKDTLMISRTPEVTCVVVDVSHEDPEVKFNWYVDGVEVHNAKTKPREEQYNSTYRVVSVLTVLHQDWLNGKEYKCKVSNKALPAPIEKTISKAKGQPREPQVYTLPPSREEMTDNQVSLTCLVKGFYPSDIAVEWESNGQPENNYKTTPPVLMSDGSFFLASKLTVDKSRWQQGNVFSCSVMHEALHNHYTQKSLSLSPG
light 1: RIQMTQSPSSLSASVGDRVTITCSASSSVTYMYWYQDKPGKAPKLLIYDTSNLASGVPSRFSGSGSGTDYTFTISSLQPEDIATYYCQQWSSHIFTFGQGTKVEIKRTVAAPSVFIFPPSDKQLKSGTARVVCLLNNFYPREAKVQWKVDNALQSGNSQESVTEQDSKDSTYSLSSTLTLSKADYEKHKVYACEVTHQGLSSPVTKSFNRGEC
heavy 2: QVQLVQSGAEVKKPGASVKVSCKASGYTVTGYYMHWVRYAPGQGLEWMGWINPNSGGTNFAQRFQGRVTMTRDTSISTFYMDLNRLRSDDTAVYYCARGGAPVSYWFFDLWGRGTLVTVSSASTKGPSVFPLAPSSKSTSGGTAALGCLVKDYFPEPVTVSWNSGALTSGVHTFPAVLQSSGLYSLSSVVTVPSSSLGTQTYICNVNHKPSNTKVDKKVEPKSCDKTHTCPPCPAPEAAGGPSVFLFPPKPKDTLMISRTPEVTCVVVDVSHEDPEVKFNWYVDGVEVHNAKTKPREEQYNSTYRVVSVLTVLHQDWLNGKEYKCKVSNKALPAPIEKTISKAKGQPRRPRVYTLPPSREEMTKNQVSLVCLVKGFYPSDIAVEWESNGQPENNYKTTPPVLDSDGSFFLYSVLTVDKSRWQQGNVFSCSVMHEALHNHYTQKSLSLSPG
light 2: DIQMTQSPSSLSASVGDRVTITCRASQSISRYLNWYQRKPGDAPKVLIYNTSSLKSGVPSRFSGSGSGTDFTLTISSLQPEDFGTFYCQQSHSTPFTFGPGTKVDIKRTVAAPSVFIFPPSDEQLKSGTASVVCLLNNFYPREAKVQWKVDNALQSGNSQESVTEQDSKDSTYSLSSTLTLSKADYEKHKVYACEVTHQGLSSPVTKSFNRGEC
Regarding B3, the Max killing % was 81.1% and the “X… HeLa EC50” value is 0.136 nM.

B4: GOMP001_bsAb_031 (bispecific antibody, human IgG1, kappa, L234A L235A)
heavy 1: QVQLVQSGAEVKKPGASVKVSCKASGYTFTSHWMHWVRKAPGQGLEWIGEFNPSNGRTNYNEEFKSKATMTVDTSTNTAYMELSSLRSEDTAVYYCASRDYDYDGRYFDYWGQGTLVTVSSASTKGPSVFPLAPSSKSTSGGTAALGCLVADYFPEPVTVSWNSGALTSGVHTFPAVLQSSGLYSLSSVVTVPSSSLGTQTYICNVNHKPSNTKVDEKVEPKSCDKTHTCPPCPAPEAAGGPSVFLFPPKPKDTLMISRTPEVTCVVVDVSHEDPEVKFNWYVDGVEVHNAKTKPREEQYNSTYRVVSVLTVLHQDWLNGKEYKCKVSNKALPAPIEKTISKAKGQPREPQVYTLPPSREEMTDNQVSLTCLVKGFYPSDIAVEWESNGQPENNYKTTPPVLMSDGSFFLASKLTVDKSRWQQGNVFSCSVMHEALHNHYTQKSLSLSPG
light 1: RIQMTQSPSSLSASVGDRVTITCSASSSVTYMYWYQDKPGKAPKLLIYDTSNLASGVPSRFSGSGSGTDYTFTISSLQPEDIATYYCQQWSSHIFTFGQGTKVEIKRTVAAPSVFIFPPSDKQLKSGTARVVCLLNNFYPREAKVQWKVDNALQSGNSQESVTEQDSKDSTYSLSSTLTLSKADYEKHKVYACEVTHQGLSSPVTKSFNRGEC
heavy 2: QGQLVESGGGVVQPGRSLRLSCAASGFTFRGFGMHWVRYAPGKGLEWVAIIYYDGKNKYYADRVKGRFTISRDNSKNTLYLQMNSLRAEDTAVYYCAKGGGYNWFDPWGRGTLVTVSSASTKGPSVFPLAPSSKSTSGGTAALGCLVKDYFPEPVTVSWNSGALTSGVHTFPAVLQSSGLYSLSSVVTVPSSSLGTQTYICNVNHKPSNTKVDKKVEPKSCDKTHTCPPCPAPEAAGGPSVFLFPPKPKDTLMISRTPEVTCVVVDVSHEDPEVKFNWYVDGVEVHNAKTKPREEQYNSTYRVVSVLTVLHQDWLNGKEYKCKVSNKALPAPIEKTISKAKGQPRRPRVYTLPPSREEMTKNQVSLVCLVKGFYPSDIAVEWESNGQPENNYKTTPPVLDSDGSFFLYSVLTVDKSRWQQGNVFSCSVMHEALHNHYTQKSLSLSPG
light 2: DIQMTQSPSSLSASVGDRVTITCRASQSISTYLNWYQRKPGDAPKLLIYSASSLQSGVPSRFSGSGSGTDFTLTISNLQPEDFAIYYCQRSYSPPFTFGPGTKLDIRRTVAAPSVFIFPPSDEQLKSGTASVVCLLNNFYPREAKVQWKVDNALQSGNSQESVTEQDSKDSTYSLSSTLTLSKADYEKHKVYACEVTHQGLSSPVTKSFNRGEC
Molecule B4 yielded a Max killing % of 68.8%.
